Source: the supplement of paper PMC9112550, “Optimization of the antimicrobial peptide Bac7 by deep mutational scanning” (BMC Biology, 2022)

Tested on: Escherichia coli TOP10
Assay: shrunken log2 fold change of peptide-encoding DNA abundance (4.5 h post-induction vs induction); higher = less antimicrobial activity (less host growth inhibition)
Conditions: time post-induction: 4.5 h; library: site-saturation at positions 5, 18, 19, 20
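Also: peptides expressed intracellularly from a pBAD plasmid library in pooled LB shake-flask culture, induced with 0.3% L-arabinose, DNA abundance read by NGS, three biological replicates, DESeq2 with apeglm shrinkage.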

RRIRTRPPRLPRPRPRPQTFPRP
shrunken log2 fold change: -0.567

RRIRTRPPRLPRPRPRPQVCPRP
shrunken log2 fold change: 0.0443

RRIRTRPPRLPRPRPRPQVHPRP
shrunken log2 fold change: -0.221

RRIRTRPPRLPRPRPRPQVMPRP
shrunken log2 fold change: -0.133

RRIRTRPPRLPRPRPRPQWFPRP
shrunken log2 fold change: -0.0925

RRIRTRPPRLPRPRPRPQWHPRP
shrunken log2 fold change: -0.461

RRIRTRPPRLPRPRPRPQWNPRP
shrunken log2 fold change: -0.832

RRIRTRPPRLPRPRPRPQYNPRP
shrunken log2 fold change: -0.856

RRIRTRPPRLPRPRPRPRCFPRP
shrunken log2 fold change: 0.204

RRIRTRPPRLPRPRPRPREPPRP
shrunken log2 fold change: 1.21

RRIRTRPPRLPRPRPRPRESPRP
shrunken log2 fold change: 0.207

RRIRTRPPRLPRPRPRPREVPRP
shrunken log2 fold change: 0.442

RRIRTRPPRLPRPRPRPRFHPRP
shrunken log2 fold change: 0.192

RRIRTRPPRLPRPRPRPRGSPRP
shrunken log2 fold change: 0.177

RRIRTRPPRLPRPRPRPRHFPRP
shrunken log2 fold change: -0.085

RRIRTRPPRLPRPRPRPRHLPRP
shrunken log2 fold change: 0.318

RRIRTRPPRLPRPRPRPRIIPRP
shrunken log2 fold change: -0.215

RRIRTRPPRLPRPRPRPRIQPRP
shrunken log2 fold change: 0.214

RRIRTRPPRLPRPRPRPRKAPRP
shrunken log2 fold change: 0.326

RRIRTRPPRLPRPRPRPRMNPRP
shrunken log2 fold change: -0.133

RRIRTRPPRLPRPRPRPRNWPRP
shrunken log2 fold change: 0.325

RRIRTRPPRLPRPRPRPRPRPRP
shrunken log2 fold change: 0.81

RRIRTRPPRLPRPRPRPRVQPRP
shrunken log2 fold change: -0.2

RRIRTRPPRLPRPRPRPRWDPRP
shrunken log2 fold change: 0.0818

RRIRTRPPRLPRPRPRPRYVPRP
shrunken log2 fold change: -0.426

RRIRTRPPRLPRPRPRPSAAPRP
shrunken log2 fold change: 0.186

RRIRTRPPRLPRPRPRPSADPRP
shrunken log2 fold change: -0.0419

RRIRTRPPRLPRPRPRPSCQPRP
shrunken log2 fold change: -0.21

RRIRTRPPRLPRPRPRPSDPPRP
shrunken log2 fold change: -0.429

RRIRTRPPRLPRPRPRPSEHPRP
shrunken log2 fold change: -0.383

RRIRTRPPRLPRPRPRPSEIPRP
shrunken log2 fold change: -0.242

RRIRTRPPRLPRPRPRPSESPRP
shrunken log2 fold change: 0.122

RRIRTRPPRLPRPRPRPSGCPRP
shrunken log2 fold change: -0.375

RRIRTRPPRLPRPRPRPSGLPRP
shrunken log2 fold change: -0.573

RRIRTRPPRLPRPRPRPSHNPRP
shrunken log2 fold change: -0.681

RRIRTRPPRLPRPRPRPSILPRP
shrunken log2 fold change: -0.781

RRIRTRPPRLPRPRPRPSKMPRP
shrunken log2 fold change: -0.793

RRIRTRPPRLPRPRPRPSLKPRP
shrunken log2 fold change: -0.359

RRIRTRPPRLPRPRPRPSMGPRP
shrunken log2 fold change: -0.22

RRIRTRPPRLPRPRPRPSMTPRP
shrunken log2 fold change: -0.401

RRIRTRPPRLPRPRPRPSPKPRP
shrunken log2 fold change: 2.46

RRIRTRPPRLPRPRPRPSPQPRP
shrunken log2 fold change: -0.133

RRIRTRPPRLPRPRPRPSQWPRP
shrunken log2 fold change: -0.168

RRIRTRPPRLPRPRPRPSRFPRP
shrunken log2 fold change: 0.244

RRIRTRPPRLPRPRPRPSSIPRP
shrunken log2 fold change: -0.233

RRIRTRPPRLPRPRPRPSSMPRP
shrunken log2 fold change: -0.239

RRIRTRPPRLPRPRPRPSWLPRP
shrunken log2 fold change: 0.11

RRIRTRPPRLPRPRPRPSYGPRP
shrunken log2 fold change: -0.259

RRIRTRPPRLPRPRPRPTDLPRP
shrunken log2 fold change: -0.0718

RRIRTRPPRLPRPRPRPTDQPRP
shrunken log2 fold change: -0.143

RRIRTRPPRLPRPRPRPTENPRP
shrunken log2 fold change: -0.293

RRIRTRPPRLPRPRPRPTEVPRP
shrunken log2 fold change: -0.199

RRIRTRPPRLPRPRPRPTGIPRP
shrunken log2 fold change: 0.00119

RRIRTRPPRLPRPRPRPTHAPRP
shrunken log2 fold change: 4.04

RRIRTRPPRLPRPRPRPTICPRP
shrunken log2 fold change: -0.401

RRIRTRPPRLPRPRPRPTIWPRP
shrunken log2 fold change: 0.03

RRIRTRPPRLPRPRPRPTNMPRP
shrunken log2 fold change: -0.409

RRIRTRPPRLPRPRPRPTPCPRP
shrunken log2 fold change: 0.124

RRIRTRPPRLPRPRPRPTPEPRP
shrunken log2 fold change: 0.08

RRIRTRPPRLPRPRPRPTQDPRP
shrunken log2 fold change: 0.837

RRIRTRPPRLPRPRPRPTQFPRP
shrunken log2 fold change: 0.0832

RRIRTRPPRLPRPRPRPTRHPRP
shrunken log2 fold change: 0.237

RRIRTRPPRLPRPRPRPTSKPRP
shrunken log2 fold change: -0.343

RRIRTRPPRLPRPRPRPTTFPRP
shrunken log2 fold change: -0.012

RRIRTRPPRLPRPRPRPTWKPRP
shrunken log2 fold change: 0.0204

RRIRTRPPRLPRPRPRPTWNPRP
shrunken log2 fold change: -0.0206

RRIRTRPPRLPRPRPRPVAQPRP
shrunken log2 fold change: 0.26

RRIRTRPPRLPRPRPRPVDQPRP
shrunken log2 fold change: -0.123

RRIRTRPPRLPRPRPRPVDSPRP
shrunken log2 fold change: 0.0391

RRIRTRPPRLPRPRPRPVDTPRP
shrunken log2 fold change: 0.0439

RRIRTRPPRLPRPRPRPVEMPRP
shrunken log2 fold change: -0.162

RRIRTRPPRLPRPRPRPVFKPRP
shrunken log2 fold change: 0.0882

RRIRTRPPRLPRPRPRPVGIPRP
shrunken log2 fold change: -0.0568

RRIRTRPPRLPRPRPRPVGNPRP
shrunken log2 fold change: 0.0924

RRIRTRPPRLPRPRPRPVHDPRP
shrunken log2 fold change: -0.0747

RRIRTRPPRLPRPRPRPVHNPRP
shrunken log2 fold change: -0.159

RRIRTRPPRLPRPRPRPVINPRP
shrunken log2 fold change: -0.189

RRIRTRPPRLPRPRPRPVKFPRP
shrunken log2 fold change: -0.0819

RRIRTRPPRLPRPRPRPVLCPRP
shrunken log2 fold change: 0.0726

RRIRTRPPRLPRPRPRPVNHPRP
shrunken log2 fold change: -0.0862

RRIRTRPPRLPRPRPRPVREPRP
shrunken log2 fold change: 0.139

RRIRTRPPRLPRPRPRPVRKPRP
shrunken log2 fold change: 0.00119

RRIRTRPPRLPRPRPRPVRLPRP
shrunken log2 fold change: -0.0555

RRIRTRPPRLPRPRPRPVRPPRP
shrunken log2 fold change: 0.779

RRIRTRPPRLPRPRPRPVTHPRP
shrunken log2 fold change: -0.0683

RRIRTRPPRLPRPRPRPVTRPRP
shrunken log2 fold change: 0.229

RRIRTRPPRLPRPRPRPVVIPRP
shrunken log2 fold change: 1.29

RRIRTRPPRLPRPRPRPVVLPRP
shrunken log2 fold change: -0.149

RRIRTRPPRLPRPRPRPVWGPRP
shrunken log2 fold change: 0.368

RRIRTRPPRLPRPRPRPVWMPRP
shrunken log2 fold change: -0.0336

RRIRTRPPRLPRPRPRPVYQPRP
shrunken log2 fold change: -0.0843

RRIRTRPPRLPRPRPRPWACPRP
shrunken log2 fold change: -0.151

RRIRTRPPRLPRPRPRPWADPRP
shrunken log2 fold change: 0.015

RRIRTRPPRLPRPRPRPWAFPRP
shrunken log2 fold change: -0.185

RRIRTRPPRLPRPRPRPWAIPRP
shrunken log2 fold change: -0.205

RRIRTRPPRLPRPRPRPWEQPRP
shrunken log2 fold change: 0.0248

RRIRTRPPRLPRPRPRPWGCPRP
shrunken log2 fold change: -0.151

RRIRTRPPRLPRPRPRPWGGPRP
shrunken log2 fold change: 0.439

RRIRTRPPRLPRPRPRPWGMPRP
shrunken log2 fold change: -0.126

RRIRTRPPRLPRPRPRPWHKPRP
shrunken log2 fold change: -0.168

RRIRTRPPRLPRPRPRPWIGPRP
shrunken log2 fold change: -0.233

RRIRTRPPRLPRPRPRPWKCPRP
shrunken log2 fold change: -0.0161

RRIRTRPPRLPRPRPRPWKRPRP
shrunken log2 fold change: 0.0299

RRIRTRPPRLPRPRPRPWLAPRP
shrunken log2 fold change: 0.216

RRIRTRPPRLPRPRPRPWLKPRP
shrunken log2 fold change: 0.18

RRIRTRPPRLPRPRPRPWNLPRP
shrunken log2 fold change: -0.031

RRIRTRPPRLPRPRPRPWNTPRP
shrunken log2 fold change: -0.0118

RRIRTRPPRLPRPRPRPWRDPRP
shrunken log2 fold change: 0.00299

RRIRTRPPRLPRPRPRPWRGPRP
shrunken log2 fold change: 0.123

RRIRTRPPRLPRPRPRPWRLPRP
shrunken log2 fold change: -0.127

RRIRTRPPRLPRPRPRPWRSPRP
shrunken log2 fold change: -0.0438

RRIRTRPPRLPRPRPRPWSFPRP
shrunken log2 fold change: -0.0893

RRIRTRPPRLPRPRPRPWTSPRP
shrunken log2 fold change: 0.0106

RRIRTRPPRLPRPRPRPWVQPRP
shrunken log2 fold change: -0.0274

RRIRTRPPRLPRPRPRPWVWPRP
shrunken log2 fold change: 0.166

RRIRTRPPRLPRPRPRPWWYPRP
shrunken log2 fold change: -0.308

RRIRTRPPRLPRPRPRPWYFPRP
shrunken log2 fold change: -0.432

RRIRTRPPRLPRPRPRPYCDPRP
shrunken log2 fold change: -0.512

RRIRTRPPRLPRPRPRPYCHPRP
shrunken log2 fold change: -0.213

RRIRTRPPRLPRPRPRPYCVPRP
shrunken log2 fold change: -0.142

RRIRTRPPRLPRPRPRPYDVPRP
shrunken log2 fold change: -0.153

RRIRTRPPRLPRPRPRPYEVPRP
shrunken log2 fold change: -0.0168

RRIRTRPPRLPRPRPRPYGHPRP
shrunken log2 fold change: -0.587

RRIRTRPPRLPRPRPRPYHIPRP
shrunken log2 fold change: -1.06

RRIRTRPPRLPRPRPRPYLDPRP
shrunken log2 fold change: -0.381

RRIRTRPPRLPRPRPRPYLFPRP
shrunken log2 fold change: -0.71

RRIRTRPPRLPRPRPRPYLIPRP
shrunken log2 fold change: -0.183

RRIRTRPPRLPRPRPRPYMGPRP
shrunken log2 fold change: -1.93

RRIRTRPPRLPRPRPRPYMIPRP
shrunken log2 fold change: -0.478

RRIRTRPPRLPRPRPRPYMKPRP
shrunken log2 fold change: -0.0199

RRIRTRPPRLPRPRPRPYMTPRP
shrunken log2 fold change: -0.375

RRIRTRPPRLPRPRPRPYNTPRP
shrunken log2 fold change: -0.737

RRIRTRPPRLPRPRPRPYPCPRP
shrunken log2 fold change: -0.245

RRIRTRPPRLPRPRPRPYPGPRP
shrunken log2 fold change: -0.164

RRIRTRPPRLPRPRPRPYQDPRP
shrunken log2 fold change: -0.0173

RRIRTRPPRLPRPRPRPYQQPRP
shrunken log2 fold change: 0.0675

RRIRTRPPRLPRPRPRPYRAPRP
shrunken log2 fold change: -0.0709

RRIRTRPPRLPRPRPRPYSPPRP
shrunken log2 fold change: -0.226

RRIRTRPPRLPRPRPRPYSWPRP
shrunken log2 fold change: -0.118

RRIRTRPPRLPRPRPRPYTDPRP
shrunken log2 fold change: -0.448

RRIRTRPPRLPRPRPRPYTLPRP
shrunken log2 fold change: -0.000759

RRIRTRPPRLPRPRPRPYVLPRP
shrunken log2 fold change: -0.321

RRIRTRPPRLPRPRPRPYVTPRP
shrunken log2 fold change: -0.203

RRIRTRPPRLPRPRPRPYWDPRP
shrunken log2 fold change: -0.0758

RRIRTRPPRLPRPRPRPYWRPRP
shrunken log2 fold change: -0.174

RRIRVRPPRLPRPRPRPAAIPRP
shrunken log2 fold change: -0.0826

RRIRVRPPRLPRPRPRPACDPRP
shrunken log2 fold change: 0.284

RRIRVRPPRLPRPRPRPACEPRP
shrunken log2 fold change: 0.165

RRIRVRPPRLPRPRPRPACKPRP
shrunken log2 fold change: -0.0847

RRIRVRPPRLPRPRPRPACTPRP
shrunken log2 fold change: -0.0478
